Measured values: US20240216425A1, “Engineered Macrophages for Cancer Immunotherapy” (The Trustees of the University of Pennsylvania, priority 2022, published 2024)
Entries after “also recorded” stand apart in the source; their conditions may differ. Where two headings read alike, the source gives them in different places.

Experiments:
[1] = system: macrophages in CD47 KO tumoroids; experiment: Macrophage clustering in tumoroids (entropy image analysis, radial profiles, cluster area); format: cell-based, mouse; conditions: 2 mM chelator added ~24 h after macrophages and anti-Tyrp1, read 3 h later
Experimental: Tumoroids. To generate surfaces conducive to B16 tumoroid formation, 96-well plates (Greiner Bio-One 650161) were either coated with 70 μL of 2% agarose in water or PBS or, more commonly, treated for 20 min with 100 μL of anti-adherence rinsing solution (StemCell Technologies 07010). The wells were washed with PBS, and then blocked with 0.5-1% (w/v) bovine serum albumin (BSA, Sigma) 37° ° C. for 1 h. B16 were detached by brief trypsinization, resuspended in RPMI supplemented with 10% FBS, 1× non-essential amino acid solution (Gibco 11140050) and 1 mM sodium pyruvate (Gibco 11360070) at a concentration of 1×103 or 1×10^4 per mL, and added to passivated wells in a volume of 100 μL. […] For tumoroid disaggregation studies, EDTA and EGTA were added in PBS to obtain a final concentration of 2 mM, and in some cases magnesium sulphate was also added for a final concentration of 5 mM Mg2+. Latrunculin A (Invitrogen L12370) dissolved at 1 μM in DMSO was further diluted in PBS and added to obtain a final concentration of 1 μM. […] Tumoroid areas were measured in Fiji/ImageJ after thresholding GFP fluorescence using built-in thresholding algorithms and manually adjusting the threshold as needed.

[2] = system: B16 tumoroids; format: cell-based, mouse
Experimental: Tumoroids. To generate surfaces conducive to B16 tumoroid formation, 96-well plates (Greiner Bio-One 650161) were either coated with 70 μL of 2% agarose in water or PBS or, more commonly, treated for 20 min with 100 μL of anti-adherence rinsing solution (StemCell Technologies 07010). The wells were washed with PBS, and then blocked with 0.5-1% (w/v) bovine serum albumin (BSA, Sigma) 37° ° C. for 1 h. B16 were detached by brief trypsinization, resuspended in RPMI supplemented with 10% FBS, 1× non-essential amino acid solution (Gibco 11140050) and 1 mM sodium pyruvate (Gibco 11360070) at a concentration of 1×103 or 1×10^4 per mL, and added to passivated wells in a volume of 100 μL. […] For tumoroid disaggregation studies, EDTA and EGTA were added in PBS to obtain a final concentration of 2 mM, and in some cases magnesium sulphate was also added for a final concentration of 5 mM Mg2+. Latrunculin A (Invitrogen L12370) dissolved at 1 μM in DMSO was further diluted in PBS and added to obtain a final concentration of 1 μM. For phagocytosis versus growth studies, CellTracker Deep Red-labeled BMDMs and antibodies (final concentration 20 μg/mL anti-Tyrp1 and/or 20 μg/mL anti-CD47 or 10 μg/mL anti-SIRPα) or mouse serum (final concentration 1:200) were added 24 h later in a volume of 20 μL RPMI growth media with 120 ng/mL M-CSF. For myosin-II inhibition studies, 20 μM blebbistatin (MilliporeSigma 203389) or an equal volume of DMSO vehicle was added to B16 tumoroids for 1 h prior to addition of BMDMs. Tumoroids were imaged on the Olympus IX microscope with 20×/0.4 NA, 10×/0.3 NA, or 4×/0.13 NA objectives. Tumoroid areas were measured in Fiji/ImageJ after thresholding GFP fluorescence using built-in thresholding algorithms and manually adjusting the threshold as needed.

[3] = system: CD47 KO B16 tumoroids; experiment: Immuno-tumoroid growth with bone marrow-derived macrophages; format: cell-based, mouse; conditions: for tumoroid elimination and macrophage clusters: macrophages pre-treated with cytokine (20 ng/mL, 48 h)
Experimental: Tumoroids. To generate surfaces conducive to B16 tumoroid formation, 96-well plates (Greiner Bio-One 650161) were either coated with 70 μL of 2% agarose in water or PBS or, more commonly, treated for 20 min with 100 μL of anti-adherence rinsing solution (StemCell Technologies 07010). The wells were washed with PBS, and then blocked with 0.5-1% (w/v) bovine serum albumin (BSA, Sigma) 37° ° C. for 1 h. B16 were detached by brief trypsinization, resuspended in RPMI supplemented with 10% FBS, 1× non-essential amino acid solution (Gibco 11140050) and 1 mM sodium pyruvate (Gibco 11360070) at a concentration of 1×103 or 1×10^4 per mL, and added to passivated wells in a volume of 100 μL. A single aggregate of B16 cells formed in each well, typically within 12 h. For tumoroid disaggregation studies, EDTA and EGTA were added in PBS to obtain a final concentration of 2 mM, and in some cases magnesium sulphate was also added for a final concentration of 5 mM Mg2+. Latrunculin A (Invitrogen L12370) dissolved at 1 μM in DMSO was further diluted in PBS and added to obtain a final concentration of 1 μM. For phagocytosis versus growth studies, CellTracker Deep Red-labeled BMDMs and antibodies (final concentration 20 μg/mL anti-Tyrp1 and/or 20 μg/mL anti-CD47 or 10 μg/mL anti-SIRPα) or mouse serum (final concentration 1:200) were added 24 h later in a volume of 20 μL RPMI growth media with 120 ng/mL M-CSF. For myosin-II inhibition studies, 20 μM blebbistatin (MilliporeSigma 203389) or an equal volume of DMSO vehicle was added to B16 tumoroids for 1 h prior to addition of BMDMs. Tumoroids were imaged on the Olympus IX microscope with 20×/0.4 NA, 10×/0.3 NA, or 4×/0.13 NA objectives. Tumoroid areas were measured in Fiji/ImageJ after thresholding GFP fluorescence using built-in thresholding algorithms and manually adjusting the threshold as needed.
Statistical analysis and curve fitting. Statistical analyses and curve fitting were performed in Prism v8.4-v9.4 (GraphPad) and MATLAB R2020a (MathWorks). Details for each analysis are provided in figure legends, and exact p values are provided. […]

[4] = target: CD47 on B16-F10 mouse melanoma cells (also on RM-9 mouse prostate cancer cells) (mouse) (UniProt Q61735); experiment: flow cytometry titration on B16 cells, secondary antibody AF647, median fluorescence fit to y=A*x/(K+x); apparent K on cells
UniProt Q61735, sequence (Q61735 19-303): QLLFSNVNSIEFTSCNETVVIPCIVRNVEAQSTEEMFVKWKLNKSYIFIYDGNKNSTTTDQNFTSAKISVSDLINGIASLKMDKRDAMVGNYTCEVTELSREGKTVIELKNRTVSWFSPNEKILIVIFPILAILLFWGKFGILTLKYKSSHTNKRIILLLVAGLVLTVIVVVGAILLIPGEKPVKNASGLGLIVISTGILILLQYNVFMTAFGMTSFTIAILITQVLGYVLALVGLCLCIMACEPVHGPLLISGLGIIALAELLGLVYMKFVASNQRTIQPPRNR

[5] = target: Tyrp1 (tyrosinase-related protein 1) on B16-F10 mouse melanoma cells (mouse) (UniProt P07147); experiment: as above
UniProt P07147, sequence (P07147 25-537): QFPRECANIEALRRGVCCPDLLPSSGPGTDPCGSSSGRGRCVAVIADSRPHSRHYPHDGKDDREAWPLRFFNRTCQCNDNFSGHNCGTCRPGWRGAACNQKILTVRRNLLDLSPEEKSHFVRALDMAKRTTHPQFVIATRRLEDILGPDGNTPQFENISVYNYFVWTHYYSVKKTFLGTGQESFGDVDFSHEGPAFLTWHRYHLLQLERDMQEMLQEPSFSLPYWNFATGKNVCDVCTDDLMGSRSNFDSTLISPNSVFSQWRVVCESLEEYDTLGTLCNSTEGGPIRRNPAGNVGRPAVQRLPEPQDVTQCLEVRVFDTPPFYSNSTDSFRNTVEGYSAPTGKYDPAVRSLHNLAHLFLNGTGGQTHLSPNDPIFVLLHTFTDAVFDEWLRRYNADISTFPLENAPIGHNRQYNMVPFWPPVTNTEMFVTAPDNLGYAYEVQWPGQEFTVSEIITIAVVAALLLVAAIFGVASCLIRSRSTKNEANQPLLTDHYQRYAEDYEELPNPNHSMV

[6] = system: macrophage monocultures; experiment: Macrophage monocultures on non-adhesive surfaces, clustering; format: cell-based, mouse; conditions: 20 ng/mL cytokine
Experimental: Bone marrow-derived macrophages (BMDMs). Bone marrow was harvested from donor mice, lysed with ACK buffer (Gibco A1049201) to deplete red blood cells, and cultured on Petri dishes for 7 days in IMDM (Gibco 12440053) supplemented with 10% FBS, 1% P/S, and 20 ng/ml recombinant mouse macrophage colony-stimulating factor (M-CSF, BioLegend 576406). Successful differentiation was confirmed by flow cytometry staining with antibodies against macrophage markers. Cytokine-primed BMDMs were cultured in RPMI growth media+20 ng/ml M-CSF+20 ng/mL IFNγ (BioLegend 575302) or 20 ng/ml IL-4 (BioLegend 574302) for 48 h prior to use in tumoroid assays or prior to analysis of protein expression by flow cytometry. […]
Entropy image analysis. Fluorescence images of CellTracker Deep Red-labeled macrophages were converted to binary images of black cells on a white background using the Otsu threshold algorithm in ImageJ. The number of dark pixels was determined from the image histogram, and the image was saved as a PNG file, which is a form of lossless file compression to determine the compressed file size as a measure of entropy. Random and structured images were generated and analyzed using the Python NumPy and PIL/Pillow packages, respectively.

[7] = 2 mM EDTA or EGTA, 1 μM Latrunculin A

O=C(O)CN(CCN(CC(=O)O)CC(=O)O)CC(=O)O [EDTA]
macrophage cluster projected area / disaggregation of macrophages [1]: rapid disaggregation of macrophages; also recorded: increases significantly
tumoroid projected area / B16 aggregates [2]: rapid (<1 h) increase

O=C(O)CN(CCOCCOCCN(CC(=O)O)CC(=O)O)CC(=O)O [EGTA]
tumoroid projected area / B16 aggregates [2, 7]: did disrupt B16 aggregates; also recorded: rapid (<1 h) increase

C/C1=C/C(=O)O[C@@H]2C[C@@H](CC[C@H](C)/C=C\C=C\CC1)O[C@@](O)([C@@H]1CSC(=O)N1)C2 [Latrunculin A]
tumoroid projected area / B16 aggregates [2, 7]: rapid (<1 h) increase

Cc1ccc2c(c1)C(=O)C1(O)CCN(c3ccccc3)C1=N2 (centres unmarked) [blebbistatin]
tumoroid growth repression by macrophages ([3]; 20 μM): not affected

anti-mouse CD47 clone MIAP301 (BioXCell BE0270) (antibody)
Kd [4]: 25 nM

anti-mouse/human Tyrp1 clone TA99 (BioXCell BE0151) (antibody)
Kd [5]: 47 nM

B1: IFNγ: interferon-γ cytokine used to prime macrophages (BioLegend 575302) (protein, UniProt P01580 23-155, looked up)
Interferon gamma: HGTVIESLESLNNYFNSSGIDVEEKSLFLDIWRNWQKDGDMKILQSQIISFYLRLFEVLKDNQAISNNISVIESHLITTFFSNSKAKKDAFMSIAKFEVNNPQVQRQAFNELIRVVHQLLPESSLRKRKRSRC
tumoroid elimination and macrophage clusters [3]: promoted
macrophage clustering in monoculture [6]: cluster

B2: IL-4: interleukin-4 cytokine used to prime macrophages (BioLegend 574302) (protein, UniProt P07750 21-140, looked up)
Interleukin-4: HIHGCDKNHLREIIGILNEVTGEGTPCTEMDVPNVLTATKNTTESELVCRASKVLRIFYLKHGKTPCLKKNSSVLMELQRLFRAFRCLDSSISCTMNESKSTSLKDFLESLKSIMQMDYS
tumoroid elimination and macrophage clusters [3]: has the opposite effects and disperses macrophages
macrophage clustering in monoculture [6]: disperse
